± gives the uncertainty stated by the source.
B1: Serine/threonine-protein kinase LATS1, residues 98 to 141; numbered along this chain, O95835 (parent)
chain: TSEVNPQMLQDLQAAGFDEDMVIQALQKTNNRSIEAAIEFISKM
B2: Apoptosis-associated speck-like protein containing a CARD, residues 114 to 194; numbered along this chain, Q9ULZ3 (parent)
chain: FIDQHRAALIARVTNVEWLLDALYGKVLTDEQYQAVRAEPTNPSKMRKLFSFTPAWNWTCKDLLLQALRESQSYLVEDLER

Variants of: B1
Experiment: abundance fitness (aPCA) (normalised: wild type 0, dead -1); higher = more abundant; growth selection in yeast, the domain comes from the species named
Conditions: Homo sapiens

Abundance fitness of substitutions, site by site:
T1: F -0.032 ± 0.23 | W -0.197 ± 0.054 | L -0.303 ± 0.071 | I -0.079 ± 0.056 | G 0.023 ± 0.041 | S 0.021 ± 0.04 | C -0.098 ± 0.046 | P -0.213 ± 0.074 | M -0.11 ± 0.067 | Q -0.062 ± 0.1 | D 0.018 ± 0.087 | N 0.316 ± 0.13 | R -0.072 ± 0.052 | A -0.062 ± 0.042 | E 0.019 ± 0.16 | K -0.012 ± 0.047 | Y -0.26 ± 0.11 | V -0.148 ± 0.048
S2: V -0.311 ± 0.039 | N -0.057 ± 0.052 | C -0.154 ± 0.093 | Y -0.231 ± 0.086 | T 0.075 ± 0.046 | D -0.082 ± 0.058 | L -0.219 ± 0.035 | Q -0.035 ± 0.054 | F -0.108 ± 0.085 | E -0.014 ± 0.06 | G 0.029 ± 0.034 | K 0.021 ± 0.059 | W -0.174 ± 0.044 | A -0.07 ± 0.04 | I -0.035 ± 0.12 | M -0.143 ± 0.043 | R -0.054 ± 0.034 | H -0.168 ± 0.14
E3: H -0.148 ± 0.071 | A -0.223 ± 0.041 | K -0.042 ± 0.05 | D -0.099 ± 0.069 | F -0.18 ± 0.095 | I -0.529 ± 0.065 | L -0.326 ± 0.046 | G -0.117 ± 0.034 | C -0.855 ± 0.073 | N -0.119 ± 0.14

Variants of: B2
Experiment: as above
Conditions: Homo sapiens

Abundance fitness of substitutions, site by site:
E80: C -0.347 ± 0.079 | A -0.283 ± 0.079 | P -0.467 ± 0.1 | H 0.018 ± 0.34 | Q -0.115 ± 0.084 | V -0.409 ± 0.067 | S -0.204 ± 0.058 | D -0.165 ± 0.088 | R -0.461 ± 0.054 | G -0.317 ± 0.053 | T -0.172 ± 0.14 | K -0.751 ± 0.21 | Y -0.532 ± 0.15 | I -0.24 ± 0.31 | M -0.325 ± 0.14
L63: N -0.556 ± 0.27 | R -0.385 ± 0.059 | Q -0.243 ± 0.098 | K -0.298 ± 0.11 | I -0.359 ± 0.2 | W -0.543 ± 0.096 | S -0.61 ± 0.099 | P -0.438 ± 0.075 | V -0.232 ± 0.055 | Y -0.028 ± 0.12 | T -0.325 ± 0.076 | M 0.056 ± 0.095
L65: I -0.338 ± 0.099 | P -0.939 ± 0.23 | R -0.361 ± 0.068 | N -0.548 ± 0.21 | A -0.074 ± 0.06 | T -0.343 ± 0.096 | W -0.172 ± 0.066 | G -0.611 ± 0.052 | F -0.024 ± 0.073 | M -0.194 ± 0.091 | S -0.512 ± 0.07 | E -0.142 ± 0.1 | C -0.248 ± 0.088 | D -0.563 ± 0.099 | H -0.143 ± 0.099 | Q -0.812 ± 0.18 | Y -0.098 ± 0.14
Q72: I -0.977 ± 0.43 | T -0.659 ± 0.11 | W -0.615 ± 0.082 | K -0.626 ± 0.15 | E 0.116 ± 0.072 | L -0.633 ± 0.077 | V -0.574 ± 0.071 | M -0.545 ± 0.12 | R -0.691 ± 0.071 | H 0.009 ± 0.096 | S -0.216 ± 0.059 | Y -0.332 ± 0.18 | N 0.141 ± 0.11 | P -0.987 ± 0.2 | A -0.191 ± 0.061 | G -0.627 ± 0.066 | C -0.272 ± 0.072
E70: F -0.401 ± 0.12 | P -0.542 ± 0.12 | K -0.116 ± 0.17 | T -0.181 ± 0.1 | M -0.46 ± 0.11 | L -0.467 ± 0.074 | S -0.265 ± 0.067 | A -0.209 ± 0.086 | C -0.202 ± 0.084 | I -0.468 ± 0.18 | V -0.211 ± 0.059 | Y -0.588 ± 0.23 | R -0.343 ± 0.061 | D -0.152 ± 0.12 | N -0.322 ± 0.16
S71: L -0.816 ± 0.1 | M -0.526 ± 0.12 | P -0.774 ± 0.14 | Q -0.251 ± 0.1 | D -0.501 ± 0.15 | N 0.161 ± 0.16 | C -0.453 ± 0.12 | G -0.479 ± 0.063 | I -0.813 ± 0.27 | V -0.429 ± 0.068 | T -0.098 ± 0.08 | W -0.874 ± 0.12 | A -0.469 ± 0.11 | F -0.8 ± 0.14 | H -0.109 ± 0.12 | R -0.529 ± 0.058 | E -0.958 ± 0.22 | K -0.538 ± 0.2
S73: K -0.289 ± 0.11 | F -0.551 ± 0.12 | H -0.144 ± 0.16 | N -0.022 ± 0.15 | M -0.266 ± 0.095 | C -0.257 ± 0.09 | W -0.302 ± 0.077 | D -0.338 ± 0.13 | V -0.517 ± 0.077 | P 0.32 ± 0.12 | T -0.048 ± 0.081 | Y -0.167 ± 0.086 | I -0.628 ± 0.18 | R -0.025 ± 0.045 | Q -0.016 ± 0.11 | A -0.063 ± 0.076 | L -0.112 ± 0.046 | E -0.218 ± 0.086 | G 0.067 ± 0.043
V76: S -1.05 ± 0.25 | G -0.587 ± 0.075 | K -0.598 ± 0.17 | E -0.838 ± 0.17 | R -0.92 ± 0.13 | Q -0.952 ± 0.29 | T -0.558 ± 0.12 | H -0.959 ± 0.35

— the Human Domainome abundance scans (Beltran et al. 2025)
